Experimental data published in patent US20040053231A1 (published 2004).

How the values were obtained:
[1] = biological target: T1, GST-p300CH1 (p300 residues 300-528) (UniProt Q09472 300-528); experiment: GST pull-down of 35S-labelled in vitro translated protein on GST-p300CH1
T1 construct: range 300-528; Bacterially expressed, immobilised on glutathione beads; the construct is described in Bhattacharya et al., 1999; also called GST-CH1; GST tagged p300 (CH1 domain); not shown: glutathione S-transferase tag from pGEX4T1 (Pharmacia)
T1 sequence (Q09472 300-528): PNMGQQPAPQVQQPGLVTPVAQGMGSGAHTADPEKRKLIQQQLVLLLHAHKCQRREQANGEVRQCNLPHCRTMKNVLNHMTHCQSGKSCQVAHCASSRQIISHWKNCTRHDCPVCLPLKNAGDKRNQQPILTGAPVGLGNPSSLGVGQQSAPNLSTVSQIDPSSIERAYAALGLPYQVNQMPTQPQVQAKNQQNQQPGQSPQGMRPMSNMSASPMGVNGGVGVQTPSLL

[2] = biological target: T2, GAL4-CH1 (residues 300-528 of p300 fused to the DNA-binding domain of GAL4) (UniProt P04386 1-147; Q09472 300-528); experiment: mammalian two-hybrid, GAL4-luciferase reporter, Hep3B cells
T2 construct: also called GAL4-p300CH1

Binder	binding result [1]	binding result [2]
HCITEDX mutant lacking the carboxy-terminal residues 138 to 184 (other, 35S-labelled (in vitro translated) in the GST pull-down assay, also called HCITEDXΔ; carboxy-terminal mutant) MADHLMLAEGYRLVQRPPSAAAAHGPHALRTLPPYAGPGLDSGLRPRGAPLGPPPPRQPGALAYGAFGPPSSFQPFPAVPPPAAGIAHLQPVATPYPGRAAAPPNAPGGPPGPQPAPSAAAPPPPAHALGGMDAELI	no binding	–
VP16-HCITEDX? (VP16 activation domain fused to residues 1-137 of HCITEDX) (other, also called VP16-HCITEDXΔ) MADHLMLAEGYRLVQRPPSAAAAHGPHALRTLPPYAGPGLDSGLRPRGAPLGPPPPRQPGALAYGAFGPPSSFQPFPAVPPPAAGIAHLQPVATPYPGRAAAPPNAPGGPPGPQPAPSAAAPPPPAHALGGMDAELI	–	no binding
